B1: Monoclonal antibody 2F11.F8 (antibody, mouse IgG1, V domains shown)
VH: ESGPGLVKPSQSLSLTCSVTGYSITSGYYWIWIRQFPGNKLEWMGYINYDGSNNYNPSLKNRISITRDTSKNQFFLKLNSVTTEDTATYYCARGNYYAMDYWGQGTSVTVSS
VL: not shown
notes: Murine IgG1 kappa from hybridoma; also called ATCC PTA-123098 (so in the source)
B2: Monoclonal antibody 26A9.C4 (antibody, mouse IgG1, V domains shown)
VH: SGARELVKPGASVKLSCKTSGFTFSSSFISWLKQKPGQSLEWIAWIYGGNGGTSYNQNFTGKAQLTVDTSSSTAYMQFSSLTTEDSAVYYCASETYGNYWYFDVWGAGTTVTVSS
VL: QSPASLSASVGDTVTITCRASGNIHNYLAWYQQKQGKSPQLLVYNAKTLADGVPSRFSGSGSGTQYSLKINSLQPEDFGNYYCQHFWSTPYTFGGGTKLEIK
notes: Murine IgG1 kappa from hybridoma; also called ATCC PTA-123092
B3: Monoclonal antibody 19D4.B7 (antibody, mouse IgG2a, V domains shown)
VH: GARELVKPGASVKLSCTASGFNIKHPYMHWVKQRPDQGLEWIGRIDPANGNTKYDPKFQGKATITADTSSNTAYLQLSSLTSEDTAVYYCGREEVADYTMDYWGQGTSVTVSS
VL: PASLAVSLGQRATISCRASESVDTYGNNFIHWYQQKPGQPPKLLIYLASNLESGVPARFSGSGSRTDFTLTIDPVEADDAATYYCQQNNGDPWTFGGGTKLEIKR
notes: SULFO-TAG conjugated when used as detection antibody in the ECL assay; also called ATCC PTA-11884
B4: Monoclonal antibody 24H8.D3 (antibody, mouse IgG1, V domains shown)
VH: QVQLKESGPGLVAPSQSLSITCTVSGFSLTSYGVSWVRQPPGKGLEWLGVIWGDGSTNYHSTLISRLSISKDNSKSQVFLKLNSLQTDDTATYYCAKPHPAATGAMDYWGQGTSVTVSS
VL: DIQMTQTTSSLSASLGDRVTISCRASQDISNHLNWYQQKPDGTIKLLIYYTSKLHSGVPSRFSGSGSGTDYSLTISNLEQEDIATYFCQQGNTLWTFGGGTKLEIK
notes: Biotin-conjugated when used as capture antibody in the ECL assay; also called ATCC PTA-123090
B5: Monoclonal antibody 30G6.G6.G4.E9 (antibody, mouse IgG1, V domains shown)
VH: GPGLVAPSQSLSITCTVSGFSLTSYGVHWVRQPPGKGLEWLGVIWAGGITNYNSALMSRLSISKDNSKSQVFLKMNSLQTDDTAMYYCARIYYDYDAWFAYWGQGTLVTVSA
VL: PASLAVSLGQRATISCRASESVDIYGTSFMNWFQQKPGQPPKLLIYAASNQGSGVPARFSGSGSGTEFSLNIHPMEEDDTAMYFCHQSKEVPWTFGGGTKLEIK
notes: Murine IgG1 kappa from hybridoma; also called ATCC PTA-123096

Biological target: T1, recombinant purified FRα (ECL assay calibrator) (human, UniProt P15328 25-234)
T1 construct: Calibrator of the ECL sandwich assays; also called FRα calibrator; FRα standard
T1 sequence (P15328 25-234 limits assumed): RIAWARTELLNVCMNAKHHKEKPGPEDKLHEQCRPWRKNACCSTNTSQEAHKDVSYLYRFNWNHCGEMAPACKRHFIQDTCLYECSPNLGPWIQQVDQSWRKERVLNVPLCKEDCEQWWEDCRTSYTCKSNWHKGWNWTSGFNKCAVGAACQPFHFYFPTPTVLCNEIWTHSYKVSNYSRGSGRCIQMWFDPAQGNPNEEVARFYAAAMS
Test: ECL sandwich on FRα, signal to background; capture 24H8.D3; binder = detection Ab

B1 and B2 are the same in “Average of S/B” value: 1 for the first, 1 for the second.

First: B3
Second: B4
The “Average of S/B” value of the first is higher: 361 for the first, 1 for the second.

Biological target: T1, recombinant purified FRα (ECL assay …)
Test: ECL sandwich on FRα, signal to background; capture 26A9.C4; binder = detection Ab

B1 and B2 are the same in “Average of S/B” value: 1 for the first, 1 for the second.

Compared with B3, B4 is lower in “Average of S/B” value: 34 for the first, 1 for the second.

Biological target: T1, recombinant purified FRα (ECL assay …)
Test: ECL sandwich on FRα, signal to background; capture 5C12.H8; binder = detection Ab

B1 and B2 are the same in “Average of S/B” value: 1 for the first, 1 for the second.

First: B3
Second: B4
The “Average of S/B” value of the first is higher: 5 for the first, 1 for the second.

Biological target: T1, recombinant purified FRα (ECL assay …)
Test: ECL sandwich, FRα calibrator; capture 30G6.G6.G4.E9; binder = detection Ab

First: B1
Second: B2
The “Specific signal at 500 pg/mL” value of the first is higher: 6790 for the first, 6710 for the second.

First: B3
Second: B4
The “Specific signal at 500 pg/mL” value of the first is lower: 81 for the first, 20300 for the second.

Biological target: T1, recombinant purified FRα (ECL assay …)
Test: ECL sandwich on FRα, signal to background; capture 2F11.F8; binder = detection Ab

B1 and B2 are the same in “Average of S/B” value: 1 for the first, 1 for the second.

Going from B3 to B4, the “Average of S/B” value falls from 17 to 1.

Biological target: T1, recombinant purified FRα (ECL assay …)
Test: ECL sandwich on FRα, signal to background; capture 1D2.G8.G10; binder = detection Ab

B1 and B2 are the same in “Average of S/B” value: 1 for the first, 1 for the second.

First: B3
Second: B4
The “Average of S/B” value of the first is higher: 29 for the first, 1 for the second.

Biological target: T1, recombinant purified FRα (ECL assay …)
Test: ECL sandwich, FRα calibrator; capture 2F11.F8; binder = detection Ab

Going from B1 to B2, the “Specific signal at 500 pg/mL” value falls from 179 to 61.

Compared with B3, B4 is lower in “Specific signal at 500 pg/mL” value: 1260 for the first, 64 for the second.

Biological target: T1, recombinant purified FRα (ECL assay …)
Test: ECL sandwich, FRα calibrator; capture 19D4.B7; binder = detection Ab

Going from B1 to B2, the “Specific signal at 500 pg/mL” value falls from 26500 to 16500.

Compared with B3, B4 is higher in “Specific signal at 500 pg/mL” value: 87 for the first, 40500 for the second.

Biological target: T1, recombinant purified FRα (ECL assay …)
Test: ECL sandwich on FRα, signal to background; capture 1C6.E12.G8; binder = detection Ab

B1 and B2 are the same in “Average of S/B” value: 1 for the first, 1 for the second.

Compared with B3, B4 is lower in “Average of S/B” value: 28 for the first, 1 for the second.

Biological target: T1, recombinant purified FRα (ECL assay …)
Test: ECL sandwich on FRα, signal to background; capture 30G6.G6.G4.E9; binder = detection Ab

First: B1
Second: B2
The “Average of S/B” value of the first is lower: 81 for the first, 114 for the second.

First: B3
Second: B4
The “Average of S/B” value of the first is lower: 1 for the first, 273 for the second.

Biological target: T1, recombinant purified FRα (ECL assay …)
Test: ECL sandwich, FRα calibrator; capture 24H8.F3; binder = detection Ab

Going from B1 to B2, the “Specific signal at 500 pg/mL” value rises from 54 to 56.

Compared with B3, B4 is lower in “Specific signal at 500 pg/mL” value: 19100 for the first, 88 for the second.

Biological target: T1, recombinant purified FRα (ECL assay …)
Test: ECL sandwich, FRα calibrator; capture 6A2.G7; binder = detection Ab

Going from B1 to B2, the “Specific signal at 500 pg/mL” value falls from 1180 to 361.

First: B3
Second: B4
The “Specific signal at 500 pg/mL” value of the first is higher: 4960 for the first, 1930 for the second.

Biological target: T1, recombinant purified FRα (ECL assay …)
Test: ECL sandwich, FRα calibrator; capture 1D2.G8.G10; binder = detection Ab

First: B1
Second: B2
The “Specific signal at 500 pg/mL” value of the first is lower: 60 for the first, 64 for the second.

Going from B3 to B4, the “Specific signal at 500 pg/mL” value falls from 1970 to 52.

Biological target: T1, recombinant purified FRα (ECL assay …)
Test: ECL sandwich, FRα calibrator; capture 1A8.G11.E7; binder = detection Ab

Going from B1 to B2, the “Specific signal at 500 pg/mL” value falls from 65 to 62.

Going from B3 to B4, the “Specific signal at 500 pg/mL” value falls from 58700 to 71.

Biological target: T2, human folate receptor gamma (FRγ), recombinant, C-terminal 6xHis (human, UniProt P41439 23-245, limits assumed)
T2 construct: Transiently expressed in 293F cells and purified; coated on ELISA plates
T2 sequence (P41439 other isoform, or with tags, fused parts or gaps limits assumed): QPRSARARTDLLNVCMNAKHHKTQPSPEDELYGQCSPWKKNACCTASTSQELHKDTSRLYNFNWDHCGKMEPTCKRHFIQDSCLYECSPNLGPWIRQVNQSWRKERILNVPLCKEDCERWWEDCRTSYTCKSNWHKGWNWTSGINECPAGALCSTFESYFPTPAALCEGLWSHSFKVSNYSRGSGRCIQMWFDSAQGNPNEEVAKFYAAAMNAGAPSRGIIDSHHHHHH
Test: direct ELISA, plates coated with 1 µg/mL FR isoform, dilution series of culture supernatant

B1: no binding.
B2: no binding.
B4: no binding.
B5: no binding.

Biological target: T3, human folate receptor beta (FRβ), recombinant, C-terminal 6xHis (human, UniProt P14207 17-230, limits assumed)
T3 construct: Transiently expressed in 293F cells and purified; coated on ELISA plates
T3 sequence (P14207 other isoform, or with tags, fused parts or gaps limits assumed): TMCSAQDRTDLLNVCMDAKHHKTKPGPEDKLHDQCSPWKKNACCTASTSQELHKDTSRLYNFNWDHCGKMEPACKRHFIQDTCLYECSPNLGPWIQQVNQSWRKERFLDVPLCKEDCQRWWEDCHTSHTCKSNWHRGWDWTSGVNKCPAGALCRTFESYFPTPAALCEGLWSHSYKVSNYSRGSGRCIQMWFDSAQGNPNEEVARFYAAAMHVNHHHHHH
Test: as above

B1: no binding.
B2: no binding.
B4: no binding.
B5: no binding.

Biological target: T1, recombinant purified FRα (ECL assay …)
Test: ECL sandwich, FRα calibrator; capture 24H8.D3; binder = detection Ab

B1 and B2 are the same in “Specific signal at 500 pg/mL” value: 59 for the first, 59 for the second.

First: B3
Second: B4
The “Specific signal at 500 pg/mL” value of the first is higher: 49100 for the first, 69 for the second.

Biological target: T1, recombinant purified FRα (ECL assay …)
Test: ECL sandwich on FRα, signal to background; capture 6A2.G7; binder = detection Ab

Compared with B1, B2 is lower in “Average of S/B” value: 23 for the first, 6 for the second.

Compared with B3, B4 is lower in “Average of S/B” value: 82 for the first, 38 for the second.

Biological target: T1, recombinant purified FRα (ECL assay …)
Test: ECL sandwich, FRα calibrator; capture 28H12.G9; binder = detection Ab

Going from B1 to B2, the “Specific signal at 500 pg/mL” value falls from 73 to 62.

First: B3
Second: B4
The “Specific signal at 500 pg/mL” value of the first is higher: 1220 for the first, 97 for the second.

Biological target: T1, recombinant purified FRα (ECL assay …)
Test: ECL sandwich, FRα calibrator; capture 5C12.H8; binder = detection Ab

First: B1
Second: B2
The “Specific signal at 500 pg/mL” value of the first is lower: 53 for the first, 68 for the second.

Going from B3 to B4, the “Specific signal at 500 pg/mL” value falls from 320 to 69.

Biological target: T1, recombinant purified FRα (ECL assay …)
Test: ECL sandwich on FRα, signal to background; capture 1A8.G11.E7; binder = detection Ab

B1 and B2 are the same in “Average of S/B” value: 1 for the first, 1 for the second.

Compared with B3, B4 is lower in “Average of S/B” value: 405 for the first, 1 for the second.

Biological target: T1, recombinant purified FRα (ECL assay …)
Test: ECL sandwich on FRα, signal to background; capture 28H12.G9; binder = detection Ab

B1 and B2 are the same in “Average of S/B” value: 1 for the first, 1 for the second.

Compared with B3, B4 is lower in “Average of S/B” value: 17 for the first, 1 for the second.

Biological target: T1, recombinant purified FRα (ECL assay …)
Test: ECL sandwich, FRα calibrator; capture 26A9.C4; binder = detection Ab

Going from B1 to B2, the “Specific signal at 500 pg/mL” value rises from 69 to 79.

Compared with B3, B4 is lower in “Specific signal at 500 pg/mL” value: 2630 for the first, 81 for the second.

Biological target: T1, recombinant purified FRα (ECL assay …)
Test: ECL sandwich, FRα calibrator; capture 19D2.G9; binder = detection Ab

Compared with B1, B2 is higher in “Specific signal at 500 pg/mL” value: 71 for the first, 79 for the second.

Going from B3 to B4, the “Specific signal at 500 pg/mL” value falls from 65500 to 110.

Biological target: T1, recombinant purified FRα (ECL assay …)
Test: ECL sandwich on FRα, signal to background; capture 19D4.B7; binder = detection Ab

First: B1
Second: B2
The “Average of S/B” value of the first is higher: 338 for the first, 250 for the second.

Going from B3 to B4, the “Average of S/B” value rises from 1 to 332.

Biological target: T1, recombinant purified FRα (ECL assay …)
Test: ECL sandwich on FRα, signal to background; capture 19D2.G9; binder = detection Ab

B1 and B2 are the same in “Average of S/B” value: 1 for the first, 1 for the second.

Compared with B3, B4 is lower in “Average of S/B” value: 560 for the first, 2 for the second.

Biological target: T1, recombinant purified FRα (ECL assay …)
Test: ECL sandwich on FRα, signal to background; capture 24H8.F3; binder = detection Ab

B1 and B2 are the same in “Average of S/B” value: 1 for the first, 1 for the second.

Going from B3 to B4, the “Average of S/B” value falls from 207 to 1.

Biological target: T1, recombinant purified FRα (ECL assay …)
Test: ECL sandwich, FRα calibrator; capture 1C6.E12.G8; binder = detection Ab

Going from B1 to B2, the “Specific signal at 500 pg/mL” value rises from 56 to 58.

First: B3
Second: B4
The “Specific signal at 500 pg/mL” value of the first is higher: 2020 for the first, 59 for the second.

From US20180148504A1 (EISAI R AND D MANAGEMENT, published 2018)
